Laboratory results: patent US20230406885A1, “CYCLIC PEPTIDES FOR TRAPPING INTERLEUKIN-1 BETA” (MERCK SHARP & DOHME LLC, priority 2022, published 2023)
*1 amine or outer side, *2 acyl side, *3 side chain or, on linkers, in order; H or OH if unused. [ ]: non-standard residue; d: D form. TyrEtNAc = L-tyrosine O-ethyl acetamide, (S)-3-(4-(2-acetamidoethoxy)phenyl)-2-aminopropanoic acid, CC(=O)NCCOc1ccc(C[C@H](N[*:1])C(=O)[*:2])cc1; Pro(trans-4-NH2) = O=C([C@@H]1C[C@@H](N[*:3])CN1[*:1])[*:2]; Bip(4'-COOH) = N[C@@H](Cc1ccc(-c2ccc(C(=O)O)cc2)cc1)C(=O)O; 1Nal(3S-Me) = C[C@@H](c1cccc2ccccc12)[C@H](N)C(=O)O; Phe(4-COOH) = N[C@@H](Cc1ccc(C(=O)O)cc1)C(=O)O; h3Pal(5-CN) = N#Cc1cncc(CC[C@H](N)C(=O)O)c1; 1Nal = N[C@@H](Cc1cccc2ccccc12)C(=O)O; hTyr = N[C@@H](CCc1ccc(O)cc1)C(=O)O; dDab = NCC[C@@H](N)C(=O)O; Orn = NCCC[C@H](N)C(=O)O; dNMeA = CN[C@H](C)C(=O)O; Dab = NCC[C@H](N)C(=O)O; Nva = CCC[C@H](N)C(=O)O; Dap = NC[C@H](N)C(=O)O; Aib = CC(C)(N)C(=O)O

B1: SEQ ID NO: 98 (peptide)
peptide: cyclo([TyrEtNAc]W[Phe(4-COOH)]G[Pro(trans-4-NH2)][1Nal(3S-Me)]D[dNMeA]G[Bip(4'-COOH)][1Nal][Nva][dA]A)
SMILES: CCC[C@@H]1NC(=O)[C@H](Cc2cccc3ccccc23)NC(=O)[C@H](Cc2ccc(-c3ccc(C(=O)O)cc3)cc2)NC(=O)CNC(=O)[C@@H](C)N(C)C(=O)[C@H](CC(=O)O)NC(=O)[C@H]([C@@H](C)c2cccc3ccccc23)NC(=O)[C@@H]2C[C@@H](N)CN2C(=O)CNC(=O)[C@H](Cc2ccc(C(=O)O)cc2)NC(=O)[C@H](Cc2c[nH]c3ccccc23)NC(=O)[C@H](Cc2ccc(OCCNC(C)=O)cc2)NC(=O)[C@H](C)NC(=O)[C@@H](C)NC1=O
B2: SEQ ID NO: 94 (peptide)
peptide: cyclo([TyrEtNAc]W[Phe(4-COOH)]G[Pro(trans-4-NH2)][1Nal(3S-Me)]D[dNMeA]G[Bip(4'-COOH)][1Nal][Dap][Aib][h3Pal(5-CN)])
SMILES: CC(=O)NCCOc1ccc(C[C@@H]2NC(=O)[C@H](CCc3cncc(C#N)c3)NC(=O)C(C)(C)NC(=O)[C@H](CN)NC(=O)[C@H](Cc3cccc4ccccc34)NC(=O)[C@H](Cc3ccc(-c4ccc(C(=O)O)cc4)cc3)NC(=O)CNC(=O)[C@@H](C)N(C)C(=O)[C@H](CC(=O)O)NC(=O)[C@H]([C@@H](C)c3cccc4ccccc34)NC(=O)[C@@H]3C[C@@H](N)CN3C(=O)CNC(=O)[C@H](Cc3ccc(C(=O)O)cc3)NC(=O)[C@H](Cc3c[nH]c4ccccc34)NC2=O)cc1
B3: SEQ ID NO: 99 (peptide)
peptide: cyclo([TyrEtNAc]W[Phe(4-COOH)]G[Pro(trans-4-NH2)][1Nal(3S-Me)]D[dNMeA]G[Bip(4'-COOH)][1Nal][Orn][Aib][hTyr])
SMILES: CC(=O)NCCOc1ccc(C[C@@H]2NC(=O)[C@H](CCc3ccc(O)cc3)NC(=O)C(C)(C)NC(=O)[C@H](CCCN)NC(=O)[C@H](Cc3cccc4ccccc34)NC(=O)[C@H](Cc3ccc(-c4ccc(C(=O)O)cc4)cc3)NC(=O)CNC(=O)[C@@H](C)N(C)C(=O)[C@H](CC(=O)O)NC(=O)[C@H]([C@@H](C)c3cccc4ccccc34)NC(=O)[C@@H]3C[C@@H](N)CN3C(=O)CNC(=O)[C@H](Cc3ccc(C(=O)O)cc3)NC(=O)[C@H](Cc3c[nH]c4ccccc34)NC2=O)cc1
B4: SEQ ID NO: 97 (peptide)
peptide: cyclo([TyrEtNAc]W[Phe(4-COOH)]G[Pro(trans-4-NH2)][1Nal(3S-Me)]D[dNMeA]G[Bip(4'-COOH)][1Nal]L[dA]A)
SMILES: CC(=O)NCCOc1ccc(C[C@@H]2NC(=O)[C@H](C)NC(=O)[C@@H](C)NC(=O)[C@H](CC(C)C)NC(=O)[C@H](Cc3cccc4ccccc34)NC(=O)[C@H](Cc3ccc(-c4ccc(C(=O)O)cc4)cc3)NC(=O)CNC(=O)[C@@H](C)N(C)C(=O)[C@H](CC(=O)O)NC(=O)[C@H]([C@@H](C)c3cccc4ccccc34)NC(=O)[C@@H]3C[C@@H](N)CN3C(=O)CNC(=O)[C@H](Cc3ccc(C(=O)O)cc3)NC(=O)[C@H](Cc3c[nH]c4ccccc34)NC2=O)cc1
B5: SEQ ID NO: 93 (peptide)
peptide: cyclo([TyrEtNAc]W[Phe(4-COOH)]G[Pro(trans-4-NH2)][1Nal(3S-Me)]D[dNMeA]G[Bip(4'-COOH)][1Nal][Dab][Aib][hTyr])
SMILES: CC(=O)NCCOc1ccc(C[C@@H]2NC(=O)[C@H](CCc3ccc(O)cc3)NC(=O)C(C)(C)NC(=O)[C@H](CCN)NC(=O)[C@H](Cc3cccc4ccccc34)NC(=O)[C@H](Cc3ccc(-c4ccc(C(=O)O)cc4)cc3)NC(=O)CNC(=O)[C@@H](C)N(C)C(=O)[C@H](CC(=O)O)NC(=O)[C@H]([C@@H](C)c3cccc4ccccc34)NC(=O)[C@@H]3C[C@@H](N)CN3C(=O)CNC(=O)[C@H](Cc3ccc(C(=O)O)cc3)NC(=O)[C@H](Cc3c[nH]c4ccccc34)NC2=O)cc1
B6: SEQ ID NO: 92 (peptide)
peptide: cyclo([TyrEtNAc]W[Phe(4-COOH)]G[Pro(trans-4-NH2)][1Nal(3S-Me)]D[dNMeA]G[Bip(4'-COOH)][1Nal][Dab][Aib]G)
SMILES: CC(=O)NCCOc1ccc(C[C@@H]2NC(=O)CNC(=O)C(C)(C)NC(=O)[C@H](CCN)NC(=O)[C@H](Cc3cccc4ccccc34)NC(=O)[C@H](Cc3ccc(-c4ccc(C(=O)O)cc4)cc3)NC(=O)CNC(=O)[C@@H](C)N(C)C(=O)[C@H](CC(=O)O)NC(=O)[C@H]([C@@H](C)c3cccc4ccccc34)NC(=O)[C@@H]3C[C@@H](N)CN3C(=O)CNC(=O)[C@H](Cc3ccc(C(=O)O)cc3)NC(=O)[C@H](Cc3c[nH]c4ccccc34)NC2=O)cc1
B7: SEQ ID NO: 96 (peptide)
peptide: cyclo([TyrEtNAc]W[Phe(4-COOH)]G[Pro(trans-4-NH2)][1Nal(3S-Me)]D[dNMeA]G[Bip(4'-COOH)][1Nal]L[Aib][hTyr])
SMILES: CC(=O)NCCOc1ccc(C[C@@H]2NC(=O)[C@H](CCc3ccc(O)cc3)NC(=O)C(C)(C)NC(=O)[C@H](CC(C)C)NC(=O)[C@H](Cc3cccc4ccccc34)NC(=O)[C@H](Cc3ccc(-c4ccc(C(=O)O)cc4)cc3)NC(=O)CNC(=O)[C@@H](C)N(C)C(=O)[C@H](CC(=O)O)NC(=O)[C@H]([C@@H](C)c3cccc4ccccc34)NC(=O)[C@@H]3C[C@@H](N)CN3C(=O)CNC(=O)[C@H](Cc3ccc(C(=O)O)cc3)NC(=O)[C@H](Cc3c[nH]c4ccccc34)NC2=O)cc1
B8: SEQ ID NO: 95 (peptide)
peptide: cyclo([TyrEtNAc]W[Phe(4-COOH)]G[Pro(trans-4-NH2)][1Nal(3S-Me)]D[dNMeA]G[Bip(4'-COOH)][1Nal]L[Aib]G)
SMILES: CC(=O)NCCOc1ccc(C[C@@H]2NC(=O)CNC(=O)C(C)(C)NC(=O)[C@H](CC(C)C)NC(=O)[C@H](Cc3cccc4ccccc34)NC(=O)[C@H](Cc3ccc(-c4ccc(C(=O)O)cc4)cc3)NC(=O)CNC(=O)[C@@H](C)N(C)C(=O)[C@H](CC(=O)O)NC(=O)[C@H]([C@@H](C)c3cccc4ccccc34)NC(=O)[C@@H]3C[C@@H](N)CN3C(=O)CNC(=O)[C@H](Cc3ccc(C(=O)O)cc3)NC(=O)[C@H](Cc3c[nH]c4ccccc34)NC2=O)cc1
B9: SEQ ID NO: 122 (Example No. 122) (peptide)
peptide: cyclo([TyrEtNAc]W[Phe(4-COOH)]G[Pro(trans-4-NH2)][1Nal(3S-Me)]D[dNMeA]G[Bip(4'-COOH)]WG[dDab][h3Pal(5-CN)])
SMILES: CC(=O)NCCOc1ccc(C[C@@H]2NC(=O)[C@H](CCc3cncc(C#N)c3)NC(=O)[C@@H](CCN)NC(=O)CNC(=O)[C@H](Cc3c[nH]c4ccccc34)NC(=O)[C@H](Cc3ccc(-c4ccc(C(=O)O)cc4)cc3)NC(=O)CNC(=O)[C@@H](C)N(C)C(=O)[C@H](CC(=O)O)NC(=O)[C@H]([C@@H](C)c3cccc4ccccc34)NC(=O)[C@@H]3C[C@@H](N)CN3C(=O)CNC(=O)[C@H](Cc3ccc(C(=O)O)cc3)NC(=O)[C@H](Cc3c[nH]c4ccccc34)NC2=O)cc1
B10: SEQ ID NO: 125 (Example No. 125) (peptide)
peptide: cyclo([TyrEtNAc]W[Phe(4-COOH)]G[Pro(trans-4-NH2)][1Nal(3S-Me)]D[dNMeA]G[Bip(4'-COOH)]WL[dA][hTyr])
SMILES: CC(=O)NCCOc1ccc(C[C@@H]2NC(=O)[C@H](CCc3ccc(O)cc3)NC(=O)[C@@H](C)NC(=O)[C@H](CC(C)C)NC(=O)[C@H](Cc3c[nH]c4ccccc34)NC(=O)[C@H](Cc3ccc(-c4ccc(C(=O)O)cc4)cc3)NC(=O)CNC(=O)[C@@H](C)N(C)C(=O)[C@H](CC(=O)O)NC(=O)[C@H]([C@@H](C)c3cccc4ccccc34)NC(=O)[C@@H]3C[C@@H](N)CN3C(=O)CNC(=O)[C@H](Cc3ccc(C(=O)O)cc3)NC(=O)[C@H](Cc3c[nH]c4ccccc34)NC2=O)cc1
B11: SEQ ID NO: 121 (Example No. 121) (peptide)
peptide: cyclo([TyrEtNAc]W[Phe(4-COOH)]G[Pro(trans-4-NH2)][1Nal(3S-Me)]D[dNMeA]G[Bip(4'-COOH)]W[Dap][dNMeA][hTyr])
SMILES: CC(=O)NCCOc1ccc(C[C@@H]2NC(=O)[C@H](CCc3ccc(O)cc3)NC(=O)[C@@H](C)N(C)C(=O)[C@H](CN)NC(=O)[C@H](Cc3c[nH]c4ccccc34)NC(=O)[C@H](Cc3ccc(-c4ccc(C(=O)O)cc4)cc3)NC(=O)CNC(=O)[C@@H](C)N(C)C(=O)[C@H](CC(=O)O)NC(=O)[C@H]([C@@H](C)c3cccc4ccccc34)NC(=O)[C@@H]3C[C@@H](N)CN3C(=O)CNC(=O)[C@H](Cc3ccc(C(=O)O)cc3)NC(=O)[C@H](Cc3c[nH]c4ccccc34)NC2=O)cc1
B12: SEQ ID NO: 123 (Example No. 123) (peptide)
peptide: cyclo([TyrEtNAc]W[Phe(4-COOH)]G[Pro(trans-4-NH2)][1Nal(3S-Me)]D[dNMeA]G[Bip(4'-COOH)]WG[dDab][hTyr])
SMILES: CC(=O)NCCOc1ccc(C[C@@H]2NC(=O)[C@H](CCc3ccc(O)cc3)NC(=O)[C@@H](CCN)NC(=O)CNC(=O)[C@H](Cc3c[nH]c4ccccc34)NC(=O)[C@H](Cc3ccc(-c4ccc(C(=O)O)cc4)cc3)NC(=O)CNC(=O)[C@@H](C)N(C)C(=O)[C@H](CC(=O)O)NC(=O)[C@H]([C@@H](C)c3cccc4ccccc34)NC(=O)[C@@H]3C[C@@H](N)CN3C(=O)CNC(=O)[C@H](Cc3ccc(C(=O)O)cc3)NC(=O)[C@H](Cc3c[nH]c4ccccc34)NC2=O)cc1
B13: SEQ ID NO: 124 (Example No. 124) (peptide)
peptide: cyclo([TyrEtNAc]W[Phe(4-COOH)]G[Pro(trans-4-NH2)][1Nal(3S-Me)]D[dNMeA]G[Bip(4'-COOH)]WL[dA]A)
SMILES: CC(=O)NCCOc1ccc(C[C@@H]2NC(=O)[C@H](C)NC(=O)[C@@H](C)NC(=O)[C@H](CC(C)C)NC(=O)[C@H](Cc3c[nH]c4ccccc34)NC(=O)[C@H](Cc3ccc(-c4ccc(C(=O)O)cc4)cc3)NC(=O)CNC(=O)[C@@H](C)N(C)C(=O)[C@H](CC(=O)O)NC(=O)[C@H]([C@@H](C)c3cccc4ccccc34)NC(=O)[C@@H]3C[C@@H](N)CN3C(=O)CNC(=O)[C@H](Cc3ccc(C(=O)O)cc3)NC(=O)[C@H](Cc3c[nH]c4ccccc34)NC2=O)cc1

Target: Recombinant human IL-1β (BioLegend 579404) (human, UniProt P01584 117-269)
Test: cell-based or functional assay

| Binder | MRC5 IC50 |
| --- | --- |
| B1 | 494 pM |
| B2 | 63.9 pM |
| B3 | 256 pM |
| B4 | 294 pM |
| B5 | 120 pM |
| B6 | 457 pM |
| B7 | 464 pM |
| B8 | 422 pM |

Target: Recombinant human IL-1β (BioLegend 579404) (human, UniProt P01584 117-269)
Test: cell-based or functional assay
Remark: another data set of the same source

| Binder | MRC5 IC50 |
| --- | --- |
| B9 | 24.8 pM |
| B10 | 64 pM |
| B11 | 85 pM |
| B12 | 45.7 pM |
| B13 | 636 pM |
